Assay results taken from article PMC5799168 (Scientific Reports, 2018).

Tested on: wild-type and mutant Ndi1
Assay: Kinetic parameters of the oxidoreductase activity of wild-type and mutant Ndi1 for ubiquinone-1
Assay type: biochemical, Saccharomyces cerevisiae
Conditions: for Km: apparent Km for ubiquinone-1 (2.4–60 µM); for Km / Vmax: NADH fixed at 100 µM; for increase of Km value for ubiquinone-1 in comparison to wild-type enzyme / Vmax, % of the wild-type activity: relative to wild-type Ndi1; for Vmax: ubiquinone-1 as substrate (2.4–60 µM)
Description: This unique structure appears to be related to the competitive nature of the inhibition of Ndi1 oxidoreductase activity by stigmatellin. It is therefore hypothesized that L444, I459, R460, and S461, which interact with stigmatellin at the STG-1a site, are also involved in the binding of the substrate ubiquinone (Fig. 5). This hypothesis was evaluated by examining the effects of mutations of the proximal L444 and I459 on the kinetics of the enzymatic reaction of Ndi1. The effect of the mutation of S484, which specifically interacts with stigmatellin at the STG-1b site, was examined as a control. Furthermore, the effects of mutations of W63, P92, A393, Q394, H397, L447, Y482, M485, and L487, which interact with the aromatic head group of stigmatellin at the STG-1a and STG-1b sites, were also examined. Moreover, to investigate the functional role of the STG-2 site in ubiquinone binding, a mutation was also introduced to R479.
NADH-ubiquinone oxidoreductase activity was measured as described previously. In brief, the reaction was started by adding 100 µM NADH to the enzyme mixture containing 10 ng/mL Ndi1, 50 mM sodium phosphate (pH 6.0) and 1 mM EDTA, which was pre-incubated with various concentrations of ubiquinone-1 for 1 min. The decrease in 340 nm absorbance was measured as an indication of the oxidation of NADH (ε = 6.22 mM^−1 cm^−1) with a Shimadzu UV2000 spectrophotometer (Kyoto, Japan). The enzymatic activity obtained with 100 µM NADH and 60 µM ubiquinone-1 in the absence of any inhibitors (100% activity) catalyzed the oxidation of 1,890 μmol NADH/min/mg Ndi1. The concentrations of inhibitors required to obtain the half-maximal inhibition (IC50) were estimated by non-linear regression dose-response curves. The inhibition mode of each inhibitor for ubiquinone-1 was determined by the intersection point in double-reciprocal plots (Fig. 2B–E). To objectively evaluate the inhibition mode, the data of the inhibition kinetics were fitted to the Eq. (1) of mixed model inhibition in the Prism6 software program (GraphPad Software, Inc., La Jolla, CA).1 V=Vmax[S]/[S](1+[I]/αKi)+Km(1+[I]/Ki) […]
To determine the kinetic parameters of wild-type and mutant enzymes for ubiquinone-1, the NADH oxidation rates were measured in a fixed concentration of NADH (100 µM) and different concentrations of ubiquinone-1 (2.4–60 µM). Apparent Km and Vmax values were obtained by fitting a data set of initial velocity versus substrate concentration to the Michaelis-Menten model equation in the Prism6 software program.
Site-directed mutagenesis. The amino acid replacements of Ndi1 were basically performed with PrimeSTAR mutagenesis basal kit (Takara, Japan) using pET16b(NDI1-m) (2) and a synthetic oligonucleotide primer set (Table S2). The mutagenesis of H397 was performed with a QuikChange II XL site-directed mutagenesis kit (Stratagene, CA). Each mutation was confirmed through DNA sequencing (DNA sequencing service, Eurofins). The purification procedure of wild-type and mutant enzymes, used for the determination of the kinetic parameters (Table 2), was basically the same as the above procedure, without the replacement of the detergent from Triton X -100 with DDM. After washing the enzyme with buffer A containing 0.1% Triton X-100 and 15 mM histidine, 0.02% Triton X-100 was added to all buffer as a substitute for DDM. With the exception of 5 mutants containing L444D, I459A, […]
yield of the wild-type enzyme. […]

Molecule | Km | increase of Km value for ubiquinone-1 in comparison to wild-type enzyme | Vmax | Vmax, % of the wild-type activity
L444D: recombinant Ndi1 mutant L444D (protein, UniProt P32340 27-513, looked up, variant L444D) Rotenone-insensitive …: STGVENSGAGPTSFKTMKVIDPQHSDKPNVLILGSGWGAISFLKHIDTKKYNVSIISPRSYFLFTPLLPSAPVGTVDEKSIIEPIVNFALKKKGNVTYYEAEATSINPDRNTVTIKSLSAVSQLYQPENHLGLHQAEPAEIKYDYLISAVGAEPNTFGIPGVTDYGHFLKEIPNSLEIRRTFAANLEKANLLPKGDPERRRLLSIVVVGGGPTGVEAAGELQDYVHQDLRKFLPALAEEVQIHLVEALPIVLNMFEKKLSSYAQSHLENTSIKVHLRTAVAKVEEKQLLAKTKHEDGKITEETIPYGTLIWATGNKARPVITDLFKKIPEQNSSKRGLAVNDFLQVKGSNNIFAIGDNAFAGLPPTAQVAHQEAEYLAKNFDKMAQIPNFQKNLSSRKDKIDLLFEENNFKPFKYNDDGALAYLGSERAIATIRSGKRTFYTGGGLMTFYLWRILYLSMILSARSRLKVFFDWIKLAFFKRDFFKGL | 37.6 ± 3.9 µM | 1.7 fold | 447 ± 6.8 µmol/min/mg | –
W63F: recombinant Ndi1 mutant W63F (protein, UniProt P32340 27-513, looked up, variant W63F) Rotenone-insensitive …: STGVENSGAGPTSFKTMKVIDPQHSDKPNVLILGSGFGAISFLKHIDTKKYNVSIISPRSYFLFTPLLPSAPVGTVDEKSIIEPIVNFALKKKGNVTYYEAEATSINPDRNTVTIKSLSAVSQLYQPENHLGLHQAEPAEIKYDYLISAVGAEPNTFGIPGVTDYGHFLKEIPNSLEIRRTFAANLEKANLLPKGDPERRRLLSIVVVGGGPTGVEAAGELQDYVHQDLRKFLPALAEEVQIHLVEALPIVLNMFEKKLSSYAQSHLENTSIKVHLRTAVAKVEEKQLLAKTKHEDGKITEETIPYGTLIWATGNKARPVITDLFKKIPEQNSSKRGLAVNDFLQVKGSNNIFAIGDNAFAGLPPTAQVAHQEAEYLAKNFDKMAQIPNFQKNLSSRKDKIDLLFEENNFKPFKYNDLGALAYLGSERAIATIRSGKRTFYTGGGLMTFYLWRILYLSMILSARSRLKVFFDWIKLAFFKRDFFKGL | 53.1 ± 6.4 µM | 2.3 fold | 1450 ± 27 µmol/min/mg | 137%
I459W: recombinant Ndi1 mutant I459W (protein, UniProt P32340 27-513, looked up, variant I459W) Rotenone-insensitive …: STGVENSGAGPTSFKTMKVIDPQHSDKPNVLILGSGWGAISFLKHIDTKKYNVSIISPRSYFLFTPLLPSAPVGTVDEKSIIEPIVNFALKKKGNVTYYEAEATSINPDRNTVTIKSLSAVSQLYQPENHLGLHQAEPAEIKYDYLISAVGAEPNTFGIPGVTDYGHFLKEIPNSLEIRRTFAANLEKANLLPKGDPERRRLLSIVVVGGGPTGVEAAGELQDYVHQDLRKFLPALAEEVQIHLVEALPIVLNMFEKKLSSYAQSHLENTSIKVHLRTAVAKVEEKQLLAKTKHEDGKITEETIPYGTLIWATGNKARPVITDLFKKIPEQNSSKRGLAVNDFLQVKGSNNIFAIGDNAFAGLPPTAQVAHQEAEYLAKNFDKMAQIPNFQKNLSSRKDKIDLLFEENNFKPFKYNDLGALAYLGSERAIATWRSGKRTFYTGGGLMTFYLWRILYLSMILSARSRLKVFFDWIKLAFFKRDFFKGL | 75.6 ± 12 µM | 3.3 fold | 58.0 ± 1.5 µmol/min/mg | –
A393G: recombinant Ndi1 mutant A393G (protein, UniProt P32340 27-513, looked up, variant A393G) Rotenone-insensitive …: STGVENSGAGPTSFKTMKVIDPQHSDKPNVLILGSGWGAISFLKHIDTKKYNVSIISPRSYFLFTPLLPSAPVGTVDEKSIIEPIVNFALKKKGNVTYYEAEATSINPDRNTVTIKSLSAVSQLYQPENHLGLHQAEPAEIKYDYLISAVGAEPNTFGIPGVTDYGHFLKEIPNSLEIRRTFAANLEKANLLPKGDPERRRLLSIVVVGGGPTGVEAAGELQDYVHQDLRKFLPALAEEVQIHLVEALPIVLNMFEKKLSSYAQSHLENTSIKVHLRTAVAKVEEKQLLAKTKHEDGKITEETIPYGTLIWATGNKARPVITDLFKKIPEQNSSKRGLAVNDFLQVKGSNNIFAIGDNAFAGLPPTGQVAHQEAEYLAKNFDKMAQIPNFQKNLSSRKDKIDLLFEENNFKPFKYNDLGALAYLGSERAIATIRSGKRTFYTGGGLMTFYLWRILYLSMILSARSRLKVFFDWIKLAFFKRDFFKGL | 32.5 ± 1.9 µM | 1.4 fold | 882 ± 7.6 µmol/min/mg | 83%
I459A: recombinant Ndi1 mutant I459A (protein, UniProt P32340 27-513, looked up, variant I459A) Rotenone-insensitive …: STGVENSGAGPTSFKTMKVIDPQHSDKPNVLILGSGWGAISFLKHIDTKKYNVSIISPRSYFLFTPLLPSAPVGTVDEKSIIEPIVNFALKKKGNVTYYEAEATSINPDRNTVTIKSLSAVSQLYQPENHLGLHQAEPAEIKYDYLISAVGAEPNTFGIPGVTDYGHFLKEIPNSLEIRRTFAANLEKANLLPKGDPERRRLLSIVVVGGGPTGVEAAGELQDYVHQDLRKFLPALAEEVQIHLVEALPIVLNMFEKKLSSYAQSHLENTSIKVHLRTAVAKVEEKQLLAKTKHEDGKITEETIPYGTLIWATGNKARPVITDLFKKIPEQNSSKRGLAVNDFLQVKGSNNIFAIGDNAFAGLPPTAQVAHQEAEYLAKNFDKMAQIPNFQKNLSSRKDKIDLLFEENNFKPFKYNDLGALAYLGSERAIATARSGKRTFYTGGGLMTFYLWRILYLSMILSARSRLKVFFDWIKLAFFKRDFFKGL | 40.2 ± 4.1 µM | 1.8 fold | 2.90 ± 0.0042 µmol/min/mg | –
H397A: recombinant Ndi1 mutant H397A (protein, UniProt P32340 27-513, looked up, variant H397A) Rotenone-insensitive …: STGVENSGAGPTSFKTMKVIDPQHSDKPNVLILGSGWGAISFLKHIDTKKYNVSIISPRSYFLFTPLLPSAPVGTVDEKSIIEPIVNFALKKKGNVTYYEAEATSINPDRNTVTIKSLSAVSQLYQPENHLGLHQAEPAEIKYDYLISAVGAEPNTFGIPGVTDYGHFLKEIPNSLEIRRTFAANLEKANLLPKGDPERRRLLSIVVVGGGPTGVEAAGELQDYVHQDLRKFLPALAEEVQIHLVEALPIVLNMFEKKLSSYAQSHLENTSIKVHLRTAVAKVEEKQLLAKTKHEDGKITEETIPYGTLIWATGNKARPVITDLFKKIPEQNSSKRGLAVNDFLQVKGSNNIFAIGDNAFAGLPPTAQVAAQEAEYLAKNFDKMAQIPNFQKNLSSRKDKIDLLFEENNFKPFKYNDLGALAYLGSERAIATIRSGKRTFYTGGGLMTFYLWRILYLSMILSARSRLKVFFDWIKLAFFKRDFFKGL | 35 ± 2.7 µM | 1.5 fold | 463 ± 17 µmol/min/mg | 44%
Q394G: recombinant Ndi1 mutant Q394G (protein, UniProt P32340 27-513, looked up, variant Q394G) Rotenone-insensitive …: STGVENSGAGPTSFKTMKVIDPQHSDKPNVLILGSGWGAISFLKHIDTKKYNVSIISPRSYFLFTPLLPSAPVGTVDEKSIIEPIVNFALKKKGNVTYYEAEATSINPDRNTVTIKSLSAVSQLYQPENHLGLHQAEPAEIKYDYLISAVGAEPNTFGIPGVTDYGHFLKEIPNSLEIRRTFAANLEKANLLPKGDPERRRLLSIVVVGGGPTGVEAAGELQDYVHQDLRKFLPALAEEVQIHLVEALPIVLNMFEKKLSSYAQSHLENTSIKVHLRTAVAKVEEKQLLAKTKHEDGKITEETIPYGTLIWATGNKARPVITDLFKKIPEQNSSKRGLAVNDFLQVKGSNNIFAIGDNAFAGLPPTAGVAHQEAEYLAKNFDKMAQIPNFQKNLSSRKDKIDLLFEENNFKPFKYNDLGALAYLGSERAIATIRSGKRTFYTGGGLMTFYLWRILYLSMILSARSRLKVFFDWIKLAFFKRDFFKGL | 30.8 ± 3.4 µM | 1.4 fold | 452 ± 8.1 µmol/min/mg | 43%
